What was measured:
[1] = biological target: Human CD3 on T cells in donor PBMC (human) (UniProt P07766); assay: cell-based or functional assay
[2] = biological target: Cynomolgus CD3εδ heterodimeric Fc fusion (cynomolgus); assay: ForteBio BLI, Fab KD, monovalent
[3] = biological target: Human CD3εδ heterodimeric Fc fusion (human); assay: ForteBio BLI, Fab KD, monovalent

Sequence of Human CD3 on T cells in donor PBMC (human) (P07766 23-207): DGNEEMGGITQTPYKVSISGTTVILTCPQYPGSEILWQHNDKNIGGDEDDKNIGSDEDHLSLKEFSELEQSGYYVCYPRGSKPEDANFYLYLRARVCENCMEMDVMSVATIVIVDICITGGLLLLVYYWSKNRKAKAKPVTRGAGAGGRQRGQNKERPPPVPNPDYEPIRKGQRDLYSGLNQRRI

Binder	D5801 10 nM Fab IFNg [1]	Fab IFNg, donor A4560 PBMC, 0.3 nM [1]	Fab IFNg, donor A4560 PBMC, 10 nM [1]	Fab IFNg, donor D5801 PBMC, 0.3 nM [1]	Fab IFNg, donor D5801 PBMC, 10 nM [1]	Kd [2]	Kd [3]
ADI-26954 Fab (Fab, from a related filing, V domains shown) VH: QVQLVQSGAEVKKPGASVKVSCKASGFNIKDYYMHWVRQAPGQRLEWMGWIDLENANTIYDAKFQGRVTITRDTSASTAYMELSSLRSEDTAVYYCARDNYGGYFYDVWGQGTLVTVSS VL: DIVMTQSPDSLAVSLGERATINCKSSQSLLESRTGKNYLAWYQQKPGQPPKLLIYWASTRESGVPDRFSGSGSGTDFTLTISSLQAEDVAVYYCKQSYSLRTFGGGTKVEIK	0 pg/mL	0 pg/mL	0 pg/mL	0 pg/mL			
ADI-26928 Fab (Fab, from a related filing, V domains shown) VH: QVQLVQSGAEVKKPGASVKVSCKASGFNIKDYYMHWVRQAPGQRLEWMGWIDLEEGNTIYDAKFQGRVTITRDTSASTAYMELSSLRSEDTAVYYCGRDAYGLYFYDVWGQGTLVTVSS VL: DIVMTQSPDSLAVSLGERATINCKSSQSLLNARTGKNYLAWYQQKPGQPPKLLIYWASTRESGVPDRFSGSGSGTDFTLTISSLQAEDVAVYYCKQSYSLRTFGGGTKVEIK					0 pg/mL		
ADI-26941 Fab (Fab, from a related filing, V domains shown) VH: QVQLVQSGAEVKKPGASVKVSCKASGFNIKDYYMHWVRQAPGQRLEWMGWIDLEEGNTIYDAKFQGRVTITRDTSASTAYMELSSLRSEDTAVYYCARDQYGRYFYDVWGQGTLVTVSS VL: DIVMTQSPDSLAVSLGERATINCKSSQSLLNARTGKNYLAWYQQKPGQPPKLLIYWASTRESGVPDRFSGSGSGTDFTLTISSLQAEDVAVYYCKQSYSIRTFGGGTKVEIK	0 pg/mL					220 nM	1100 nM
